Values belong to the binder of their own block, whether it stands above or below them.
Key:
[1] = target: T1, Syntaxin-5 (STX5), endogenous, as precipitated by the anti-STX5 antibody (human (endogenous in HEK293T), UniProt Q13190 1-355); experiment: co-IP
T1 sequence (looked up): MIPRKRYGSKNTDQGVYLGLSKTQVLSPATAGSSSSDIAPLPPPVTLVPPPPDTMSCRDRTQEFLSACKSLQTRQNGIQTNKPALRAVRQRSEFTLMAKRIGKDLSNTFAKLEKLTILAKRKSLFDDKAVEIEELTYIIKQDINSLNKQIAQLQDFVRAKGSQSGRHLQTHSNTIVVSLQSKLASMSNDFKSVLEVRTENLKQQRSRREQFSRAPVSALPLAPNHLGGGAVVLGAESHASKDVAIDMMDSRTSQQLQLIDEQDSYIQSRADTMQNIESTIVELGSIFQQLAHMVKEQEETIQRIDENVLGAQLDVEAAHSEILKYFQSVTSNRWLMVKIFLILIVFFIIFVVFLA

[2] = target: T2, SNAP29-His6 (SNAP29 in pET23a) (UniProt O95721 1-258); experiment: pull-down
T2 sequence (looked up): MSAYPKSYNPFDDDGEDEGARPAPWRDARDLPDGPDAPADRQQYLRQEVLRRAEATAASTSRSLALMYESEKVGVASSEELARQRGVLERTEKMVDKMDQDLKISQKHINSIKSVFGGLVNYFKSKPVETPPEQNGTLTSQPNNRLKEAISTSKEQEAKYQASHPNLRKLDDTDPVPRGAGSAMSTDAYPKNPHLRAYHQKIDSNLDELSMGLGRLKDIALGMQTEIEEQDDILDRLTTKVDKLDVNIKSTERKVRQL

B3: SNAP29, endogenous (natural protein, human (endogenous in HEK293T), UniProt O95721 1-258, looked up)
chain: T2 sequence (looked up)
- percent of the cellular protein present in STX5 complexes (GS28 KO cells) [1]: ~35%

B4: GST-STX5 (rSTX5 (55-333) in pGEX-KG) (domain or fragment, UniProt Q08851 55-333, looked up)
chain: MSCRDRTQEFLSACKSLQSRQNGIQTNKPALHATRQCSEFTLMARRIGKDLSNTFAKLEKLTILAKRKSLFDDKAVEIEELTYIIKQDINSLNKQIAQLQDFVRAKGSQSGRHLQTHSNTIVVSLQSKLASMSNDFKSVLEVRTENLKQQRNRREQFSRAPVSALPLAPNNLGGGPIVLGGESRASRDVAIDMMDPRTSQQLQLIDEQDSYIQSRADTMQNIESTIVELGSIFQQLAHMVKEQEETIQRIDENVLGAQLDVEAAHSEILKYFQSVTSNR
- stoichiometry N [2]: 1

Second part, the binder after the results:

- percent of the cellular protein present in STX5 complexes (GS28 KO cells) [1]: < 25%
B1: VTI1B, endogenous (natural protein, human (endogenous in HEK293T), UniProt Q9UEU0 1-232, looked up)
chain: MASSAASSEHFEKLHEIFRGLHEDLQGVPERLLGTAGTEEKKKLIRDFDEKQQEANETLAEMEEELRYAPLSFRNPMMSKLRNYRKDLAKLHREVRSTPLTATPGGRGDMKYGIYAVENEHMNRLQSQRAMLLQGTESLNRATQSIERSHRIATETDQIGSEIIEELGEQRDQLERTKSRLVNTSENLSKSRKILRSMSRKVTTNKLLLSIIILLELAILGGLVYYKFFRSH

- percent of the cellular protein present in STX5 complexes (GS28 KO cells) [1]: < 25%
B2: VAMP7, endogenous (natural protein, human (endogenous in HEK293T), UniProt P51809 1-220, looked up)
chain: MAILFAVVARGTTILAKHAWCGGNFLEVTEQILAKIPSENNKLTYSHGNYLFHYICQDRIVYLCITDDDFERSRAFNFLNEIKKRFQTTYGSRAQTALPYAMNSEFSSVLAAQLKHHSENKGLDKVMETQAQVDELKGIMVRNIDLVAQRGERLELLIDKTENLVDSSVTFKTTSRNLARAMCMKNLKLTIIIIIVSIVFIYIIVSPLCGGFTWPSCVKK
